Assay results from US12679878B2, “CRF2 receptor agonists and their use in therapy” (SANOFI, priority 2020, dated 2026).
Starred links: 1 amine or outer side, 2 acyl side, 3 side chain; linkers in the order of their positions; H or OH if unused. Non-standard residues stand in square brackets, D forms with d. Groups on a side chain read outwards from the residue. No end group written: not given here. *: point of attachment. C20 diacid = O=C(O)CCCCCCCCCCCCCCCCCCC(=O)*; C18 diacid = O=C(O)CCCCCCCCCCCCCCCCC(=O)*; γGlu = O=C(O)[C@H](CCC(=O)[*:2])N[*:1]; AEEA = NCCOCCOCC(=O)O; Aib = CC(C)(N)C(=O)O

T1: endogenous human CRF2 (NCI-H82 cells) (human, UniProt Q13324 20-411)
T1 sequence (looked up): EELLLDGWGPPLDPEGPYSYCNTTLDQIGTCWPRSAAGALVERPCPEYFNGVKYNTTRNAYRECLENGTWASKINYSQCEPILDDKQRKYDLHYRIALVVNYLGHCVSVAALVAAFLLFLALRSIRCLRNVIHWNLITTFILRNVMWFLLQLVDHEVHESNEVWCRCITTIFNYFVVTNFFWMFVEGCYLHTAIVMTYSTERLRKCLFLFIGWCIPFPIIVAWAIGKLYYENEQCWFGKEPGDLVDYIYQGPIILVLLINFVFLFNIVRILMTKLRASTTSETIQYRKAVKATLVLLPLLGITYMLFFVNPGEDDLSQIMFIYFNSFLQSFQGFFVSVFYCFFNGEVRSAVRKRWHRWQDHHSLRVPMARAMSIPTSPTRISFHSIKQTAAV

T2: anti-target CRF1R receptor (UniProt P34998 24-415, limits assumed)
T2 sequence (looked up): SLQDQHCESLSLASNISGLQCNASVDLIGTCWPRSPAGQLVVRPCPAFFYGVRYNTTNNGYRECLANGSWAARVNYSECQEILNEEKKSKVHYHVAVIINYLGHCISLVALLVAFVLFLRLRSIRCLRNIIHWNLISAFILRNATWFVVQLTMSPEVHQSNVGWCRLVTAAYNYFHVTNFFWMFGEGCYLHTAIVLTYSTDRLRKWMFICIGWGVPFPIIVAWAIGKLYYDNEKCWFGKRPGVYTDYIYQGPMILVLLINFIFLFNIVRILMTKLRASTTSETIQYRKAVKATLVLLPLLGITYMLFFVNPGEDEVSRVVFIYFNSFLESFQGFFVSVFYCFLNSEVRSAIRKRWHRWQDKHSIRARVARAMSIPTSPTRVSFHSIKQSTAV

B1: peptide of SEQ ID NO: 81 (peptide)
peptide: IVLSLDVPIKLK([AEEA-AEEA-γGlu-C20 diacid])QILLEQEKQK[Aib]QREQAETNKQILAQV-NH2
modifications: N-terminus assumed
SMILES: CC[C@H](C)[C@H](N)C(=O)N[C@H](C(=O)N[C@@H](CC(C)C)C(=O)N[C@@H](CO)C(=O)N[C@@H](CC(C)C)C(=O)N[C@@H](CC(=O)O)C(=O)N[C@H](C(=O)N1CCC[C@H]1C(=O)N[C@H](C(=O)N[C@@H](CCCCN)C(=O)N[C@@H](CC(C)C)C(=O)N[C@@H](CCCCNC(=O)COCCOCCNC(=O)COCCOCCNC(=O)CC[C@H](NC(=O)CCCCCCCCCCCCCCCCCCC(=O)O)C(=O)O)C(=O)N[C@@H](CCC(N)=O)C(=O)N[C@H](C(=O)N[C@@H](CC(C)C)C(=O)N[C@@H](CC(C)C)C(=O)N[C@@H](CCC(=O)O)C(=O)N[C@@H](CCC(N)=O)C(=O)N[C@@H](CCC(=O)O)C(=O)N[C@@H](CCCCN)C(=O)N[C@@H](CCC(N)=O)C(=O)N[C@@H](CCCCN)C(=O)NC(C)(C)C(=O)N[C@@H](CCC(N)=O)C(=O)N[C@@H](CCCNC(=N)N)C(=O)N[C@@H](CCC(=O)O)C(=O)N[C@@H](CCC(N)=O)C(=O)N[C@@H](C)C(=O)N[C@@H](CCC(=O)O)C(=O)N[C@H](C(=O)N[C@@H](CC(N)=O)C(=O)N[C@@H](CCCCN)C(=O)N[C@@H](CCC(N)=O)C(=O)N[C@H](C(=O)N[C@@H](CC(C)C)C(=O)N[C@@H](C)C(=O)N[C@@H](CCC(N)=O)C(=O)N[C@H](C(N)=O)C(C)C)[C@@H](C)CC)[C@@H](C)O)[C@@H](C)CC)[C@@H](C)CC)C(C)C)C(C)C
B2: peptide of SEQ ID NO: 141 (peptide)
peptide: IVLSLD[dV]PIKLK([AEEA-AEEA-γGlu-C18 diacid])QILLKQARQK[Aib]QRAQAEKNKRILERV-NH2
modifications: N-terminus assumed
SMILES: CC[C@H](C)[C@H](N)C(=O)N[C@H](C(=O)N[C@@H](CC(C)C)C(=O)N[C@@H](CO)C(=O)N[C@@H](CC(C)C)C(=O)N[C@@H](CC(=O)O)C(=O)N[C@@H](C(=O)N1CCC[C@H]1C(=O)N[C@H](C(=O)N[C@@H](CCCCN)C(=O)N[C@@H](CC(C)C)C(=O)N[C@@H](CCCCNC(=O)COCCOCCNC(=O)COCCOCCNC(=O)CC[C@H](NC(=O)CCCCCCCCCCCCCCCCC(=O)O)C(=O)O)C(=O)N[C@@H](CCC(N)=O)C(=O)N[C@H](C(=O)N[C@@H](CC(C)C)C(=O)N[C@@H](CC(C)C)C(=O)N[C@@H](CCCCN)C(=O)N[C@@H](CCC(N)=O)C(=O)N[C@@H](C)C(=O)N[C@@H](CCCNC(=N)N)C(=O)N[C@@H](CCC(N)=O)C(=O)N[C@@H](CCCCN)C(=O)NC(C)(C)C(=O)N[C@@H](CCC(N)=O)C(=O)N[C@@H](CCCNC(=N)N)C(=O)N[C@@H](C)C(=O)N[C@@H](CCC(N)=O)C(=O)N[C@@H](C)C(=O)N[C@@H](CCC(=O)O)C(=O)N[C@@H](CCCCN)C(=O)N[C@@H](CC(N)=O)C(=O)N[C@@H](CCCCN)C(=O)N[C@@H](CCCNC(=N)N)C(=O)N[C@H](C(=O)N[C@@H](CC(C)C)C(=O)N[C@@H](CCC(=O)O)C(=O)N[C@@H](CCCNC(=N)N)C(=O)N[C@H](C(N)=O)C(C)C)[C@@H](C)CC)[C@@H](C)CC)[C@@H](C)CC)C(C)C)C(C)C
B3: peptide of SEQ ID NO: 143 (peptide)
peptide: FTLSLDVPTKIK([AEEA-AEEA-γGlu-C18 diacid])QILLKQEKQKKQRQKAKTNKQILERV-NH2
modifications: N-terminus assumed
SMILES: CC[C@H](C)[C@H](NC(=O)[C@H](CCC(N)=O)NC(=O)[C@H](CCCCN)NC(=O)[C@H](CC(N)=O)NC(=O)[C@@H](NC(=O)[C@H](CCCCN)NC(=O)[C@H](C)NC(=O)[C@H](CCCCN)NC(=O)[C@H](CCC(N)=O)NC(=O)[C@H](CCCNC(=N)N)NC(=O)[C@H](CCC(N)=O)NC(=O)[C@H](CCCCN)NC(=O)[C@H](CCCCN)NC(=O)[C@H](CCC(N)=O)NC(=O)[C@H](CCCCN)NC(=O)[C@H](CCC(=O)O)NC(=O)[C@H](CCC(N)=O)NC(=O)[C@H](CCCCN)NC(=O)[C@H](CC(C)C)NC(=O)[C@H](CC(C)C)NC(=O)[C@@H](NC(=O)[C@H](CCC(N)=O)NC(=O)[C@H](CCCCNC(=O)COCCOCCNC(=O)COCCOCCNC(=O)CC[C@H](NC(=O)CCCCCCCCCCCCCCCCC(=O)O)C(=O)O)NC(=O)[C@@H](NC(=O)[C@H](CCCCN)NC(=O)[C@@H](NC(=O)[C@@H]1CCCN1C(=O)[C@@H](NC(=O)[C@H](CC(=O)O)NC(=O)[C@H](CC(C)C)NC(=O)[C@H](CO)NC(=O)[C@H](CC(C)C)NC(=O)[C@@H](NC(=O)[C@@H](N)Cc1ccccc1)[C@@H](C)O)C(C)C)[C@@H](C)O)[C@@H](C)CC)[C@@H](C)CC)[C@@H](C)O)C(=O)N[C@@H](CC(C)C)C(=O)N[C@@H](CCC(=O)O)C(=O)N[C@@H](CCCNC(=N)N)C(=O)N[C@H](C(N)=O)C(C)C
B4: peptide of SEQ ID NO: 101 (peptide)
peptide: IVLSLDVPIKLK([AEEA-AEEA-γGlu-C18 diacid])KILLKQERQKK[Aib]REQAETNKQILERV-NH2
modifications: N-terminus assumed
SMILES: CC[C@H](C)[C@H](N)C(=O)N[C@H](C(=O)N[C@@H](CC(C)C)C(=O)N[C@@H](CO)C(=O)N[C@@H](CC(C)C)C(=O)N[C@@H](CC(=O)O)C(=O)N[C@H](C(=O)N1CCC[C@H]1C(=O)N[C@H](C(=O)N[C@@H](CCCCN)C(=O)N[C@@H](CC(C)C)C(=O)N[C@@H](CCCCNC(=O)COCCOCCNC(=O)COCCOCCNC(=O)CC[C@H](NC(=O)CCCCCCCCCCCCCCCCC(=O)O)C(=O)O)C(=O)N[C@@H](CCCCN)C(=O)N[C@H](C(=O)N[C@@H](CC(C)C)C(=O)N[C@@H](CC(C)C)C(=O)N[C@@H](CCCCN)C(=O)N[C@@H](CCC(N)=O)C(=O)N[C@@H](CCC(=O)O)C(=O)N[C@@H](CCCNC(=N)N)C(=O)N[C@@H](CCC(N)=O)C(=O)N[C@@H](CCCCN)C(=O)N[C@@H](CCCCN)C(=O)NC(C)(C)C(=O)N[C@@H](CCCNC(=N)N)C(=O)N[C@@H](CCC(=O)O)C(=O)N[C@@H](CCC(N)=O)C(=O)N[C@@H](C)C(=O)N[C@@H](CCC(=O)O)C(=O)N[C@H](C(=O)N[C@@H](CC(N)=O)C(=O)N[C@@H](CCCCN)C(=O)N[C@@H](CCC(N)=O)C(=O)N[C@H](C(=O)N[C@@H](CC(C)C)C(=O)N[C@@H](CCC(=O)O)C(=O)N[C@@H](CCCNC(=N)N)C(=O)N[C@H](C(N)=O)C(C)C)[C@@H](C)CC)[C@@H](C)O)[C@@H](C)CC)[C@@H](C)CC)C(C)C)C(C)C

Legend:
Assay in all cases: cell-based or functional assay
[1] = target: T1, endogenous human CRF2 (NCI-H82 cells)
rat CRF2R α receptor = rat CRF2R α receptor (rat, UniProt P47866 20-411)
[2] = target: T2, anti-target CRF1R receptor

| Binder | EC50 [nM] (cAMP, NCI-H82 cells) [1] | EC50 [nM], 0% HSA (cAMP, A7R5 cells) (rat CRF2R α receptor) | EC50[nM] 0% HSA (cAMP, CRF1R-overexpression CHO cells) [2] | Emax (%) (cAMP, CRF1R-overexpression CHO cells) [2] |
| --- | --- | --- | --- | --- |
| B1 | 110 nM | 0.94 nM | > 1000 nM | 23.3% |
| B2 | 12 nM | 0.05 nM | – | – |
| B3 | 93 nM | – | – | – |
| B4 | 4.1 nM | 1.02 nM | > 1000 nM | -0.34% |
